Source: publication PMC3865253

Assays:
YFP-ICAC84-224 (rat) = experiment: FRET or BRET; living HEK293T cells co-expressing CFP- and YFP-tagged proteins; three-filter imaging; normalized FRET signal N_FRET (Eq. 1); when FRET occurs N_FRET is greater than 0.2
GFP-ICAC1-83 (rat) = experiment: co-IP; 293T cells co-transfected with myc-PICK1 and GFP, GFP-ICA69 or a GFP-tagged truncation; RIPA lysate; precipitated with anti-GFP antibody on protein A-sepharose; blot with anti-myc; quantified as Co-IP myc/Input myc, normalized to the ICA69 group; 4 independent cultures
GFP-ICAC84-224 (rat) = experiment: as above
Sequence of GFP-ICAC84-224 (rat) (Q63054 whole entry): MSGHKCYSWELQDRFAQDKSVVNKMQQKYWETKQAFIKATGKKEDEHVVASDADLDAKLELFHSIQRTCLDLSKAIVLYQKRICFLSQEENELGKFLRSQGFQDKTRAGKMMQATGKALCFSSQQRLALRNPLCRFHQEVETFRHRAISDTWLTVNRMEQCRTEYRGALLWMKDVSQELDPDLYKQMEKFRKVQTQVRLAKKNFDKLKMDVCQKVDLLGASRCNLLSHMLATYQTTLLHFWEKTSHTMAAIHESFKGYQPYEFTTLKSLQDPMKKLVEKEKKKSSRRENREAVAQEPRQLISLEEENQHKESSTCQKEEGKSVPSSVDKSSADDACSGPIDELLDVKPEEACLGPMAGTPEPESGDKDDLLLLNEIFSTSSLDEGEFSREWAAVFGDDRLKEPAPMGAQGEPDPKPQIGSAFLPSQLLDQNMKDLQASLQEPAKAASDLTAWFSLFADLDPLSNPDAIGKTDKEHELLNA

Sequence of YFP-ICAC84-224 (rat) (Q63054 whole entry, the tested form may be a part): as the sequence (Q63054 whole entry) above

Substance | N FRET (YFP-ICAC84-224 (rat)) | percentage of precipitated protein normalized to ICA69 group (GFP-ICAC1-83 (rat)) [%] | percentage of precipitated protein normalized to ICA69 group (GFP-ICAC84-224 (rat)) [%]
CFP-PICK1 (from UniProt Q9EP80 1-416) (natural protein) | 0.86 | – | –
myc-PICK1 (protein interacting with C-kinase 1) (from UniProt Q9EP80 1-416) (natural protein) | – | 11 | 66
